IntAct's records for PubMed 10064581

B1: Circadian clock oscillator protein KaiA (Synechococcus elongatus (strain PCC 7942)), Q79PF6 (parent)
chain: MLSQIAICIWVESTAILQDCQRALSADRYQLQVCESGEMLLEYAQTHRDQIDCLILVAANPSFRAVVQQLCFEGVVVPAIVVGDRDSEDPDEPAKEQLYHSAELHLGIHQLEQLPYQVDAALAEFLRLAPVETMADHIMLMGANHDPELSSQQRDLAQRLQERLGYLGVYYKRDPDRFLRNLPAYESQKLHQAMQTSYREIVLSYFSPNSNLNQSIDNFVNMAFFADVPVTKVVEIHMELMDEFAKKLRVEGRSEDILLDYRLTLIDVIAHLCEMYRRSIPRET
partner: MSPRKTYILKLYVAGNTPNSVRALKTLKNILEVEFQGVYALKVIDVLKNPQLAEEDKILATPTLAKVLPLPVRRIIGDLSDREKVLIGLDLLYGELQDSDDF

Variants of: B1
Settings: with kaib_syne7 kaiB

Row | Variant | effect of a mutation on the interaction
1 | E103K | increasing interaction
